Measured values from paper PMC11316819.

Molecular target: EEEV PE6 virus-like particle (Eastern equine encephalitis virus, strain PE6)
Experiment: BLI

Row | Substance | Kd
1 | ApoER2_(iso2) LA1-3-Fc (Fc fusion) | 705 nM
2 | S. vulgaris VLDLR LA1-8-Fc (Fc fusion) | 11 nM
3 | VLDLR LA1-2-Fc (from UniProt P98155-1 28-113) (Fc fusion) | 505 nM
4 | VLDLR LA1-3-Fc (from UniProt P98155-1 28-152) (Fc fusion) | 363 nM
5 | VLDLR LA2-3-Fc (from UniProt P98155-1 70-151) (Fc fusion) | 1800 nM
6 | VLDLR LA2-4-Fc (from UniProt P98155-1 70-190) (Fc fusion) | 1100 nM
7 | VLDLR LA2-5-Fc (from UniProt P98155-1 70-231) (Fc fusion) | 42.5 nM
8 | VLDLR LA3-4-Fc (from UniProt P98155-1 111-190) (Fc fusion) | 3900 nM
9 | VLDLR LA3-5-Fc (from UniProt P98155-1 111-236) (Fc fusion) | 32.3 nM
10 | VLDLR LA3-6-Fc (from UniProt P98155-1 111-276) (Fc fusion) | 71.5 nM
11 | VLDLR LA4-5-Fc (from UniProt P98155-1 152-236) (Fc fusion) | 11900 nM
12 | VLDLR LA4-6-Fc (from UniProt P98155-1 152-275) (Fc fusion) | 2300 nM
13 | VLDLR LA5-6-Fc (from UniProt P98155-1 191-275) (Fc fusion) | 4200 nM
